Assay results as given in publication PMC6463862, “Adaptive and degenerative evolution of the S-Phase Kinase-Associated Protein 1-Like family in Arabidopsis thaliana” (PeerJ, 2019).

How the values were obtained:
[1] = molecular target: DIF (Arabidopsis (cDNA clone from the Arabidopsis Biological Resource Center)); assay: two-hybrid; F-box proteins as GAL4-BD baits (pGBK-T7, AH109), ASK1/2 as GAL4-AD preys (pGAD-T7, Y187), mated; growth on SD-Leu-Trp-Ade-His + X-alpha-gal at 30 °C normalised to growth on SD-Leu-Trp, and beta-galactosidase activity assay (two independent assays); results told together
JMJ22 = molecular target: T1, JMJ22 (Arabidopsis (cDNA clone from the …, UniProt Q67XX3 1-502)); assay: as above; details: partners not purified
T1 construct: F-box protein JMJ22; CDS PCR amplified from an ABRC cDNA clone and ligated in frame to the 3' end of the GAL4-BD CDS in pGBK-T7 (bait); source: yeast two-hybrid fusion
T1 sequence (looked up): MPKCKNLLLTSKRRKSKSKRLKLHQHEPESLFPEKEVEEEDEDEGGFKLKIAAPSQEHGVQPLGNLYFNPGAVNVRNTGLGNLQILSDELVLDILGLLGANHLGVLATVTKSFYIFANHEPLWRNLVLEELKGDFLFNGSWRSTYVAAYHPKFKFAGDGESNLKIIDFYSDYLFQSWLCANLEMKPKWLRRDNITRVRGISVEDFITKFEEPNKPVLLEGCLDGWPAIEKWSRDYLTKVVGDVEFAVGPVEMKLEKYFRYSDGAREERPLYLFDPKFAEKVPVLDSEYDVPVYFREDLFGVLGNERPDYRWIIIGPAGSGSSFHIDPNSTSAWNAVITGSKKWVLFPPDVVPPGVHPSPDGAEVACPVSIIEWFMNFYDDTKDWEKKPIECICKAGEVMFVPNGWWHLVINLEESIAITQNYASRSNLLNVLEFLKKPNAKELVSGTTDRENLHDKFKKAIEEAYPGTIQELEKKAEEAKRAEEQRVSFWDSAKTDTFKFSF

B1: Arabidopsis Skp1-Like 1 (natural protein, A. thaliana, UniProt Q39255 1-160, looked up)
chain: MSAKKIVLKSSDGESFEVEEAVALESQTIAHMVEDDCVDNGVPLPNVTSKILAKVIEYCKRHVEAAASKAEAVEGAATSDDDLKAWDADFMKIDQATLFELILAANYLNIKNLLDLTCQTVADMIKGKTPEEIRTTFNIKNDFTPEEEEEVRRENQWAFE
notes: ASK1 (A. thaliana Skp1-Like 1); CDS PCR amplified from an ABRC cDNA clone and ligated in frame to the 3' end of the GAL4-AD CDS in pGAD-T7 (prey); also called ASK1; source: yeast two-hybrid fusion
For B1, the fold interaction strength against ASK2 [1] was > 2 fold and the “fold interaction strength against ASK2” value (JMJ22) was > 2 fold.
